Here are results for one molecule from patent US20080171037A1 (Genentech, published 2008).

The target of this assay is T1, ECD of the Apo-2L receptor, DR5 (UniProt O14763 56-210, limits assumed).
T1 construct: extracellular domain; Comparison receptor
Put plainly: co-immunoprecipitation (anti-Flag sepharose or nickel-sepharose), Western blot with nickel-conjugated HRP. On the procedure: The respective ligands (1 μg/ml) and receptors (1 μg/ml) were incubated for 1 hour at room temperature. The reaction mixtures were subjected to precipitation with anti-Flag antibody conjugated to sepharose beads (Kodak) (FIG. 8A, left) or nickel-sepharose (Qiagen) (FIG. 8A, right) by overnight incubation at 4° C. according to manufacturer's instructions and resolved by gel electrophoresis. The ligands were visualized by Western blot analysis with nickel-conjugated horseradish peroxidase. In FIG. 8A, molecular weight markers (kDa) are indicated on the left.

B1: His-tagged soluble Apo-3 Ligand (ligand)
chain: MGHHHHHHHHHHSSGHIDDDDKHMRASLSAQEPAQEELVAEEDQDPSELNPQTEESQDPAPFLNRLVRPRRSAPKGRKTRARRAIAAHYEVHPRPGQDGAQAGVDGTVSGWEEARINSSSPLRYNRQIGEFIVTRAGLYYLYCQVHFDEGKAVYLKLDLLVDGVLALRCLEEFSATAASSLGPQLRLCQVSGLLALRPGSSLRIRTLPWAHLKAAPFLTYFGLFQVH
notes: also called histidine tagged soluble Apo-3 Ligand; DNA30879
Consider B1, for which the binding result is “no binding (tested: 1 µg/ml ligand and 1 µg/ml receptor)”.
